{"source": "a protein production outcome set (Wang et al. 2014)", "data": [{"assay": "label from the status in PepcDB records", "values": [{"sequence": "MRNSNGGRDNRKSNRDQYRKPDYAGEMLFDDEEDYDDDADYDVVDDMKAHNDDYSDSAFGPDADNYDTDDDAWHDDVAAADDDPSDEDGYYDEEYDDTEDWQDMKDSKRKKKNRVWGIILALEIVTAIVIGVLFVKSYINNTYSKMQYNELKNTHINEDLNEESVKKMTGYTNIALFGIDTRDSGMVDDGVRSDSIIICSINNDTQEVKLLSVYRDTYLELCNDSQSYEKAAHAYAYGGAQGAVNMLNKNLDLNITDYVAVNFTALTEAIDALGGIDVELKEEELYKLNQCIDEQMGVNGIYSDYVYDTGVVHLNGVQATAYSRIRSTDEGDITRTWRQRTVISKMIEAAKSAGLSRLLDCINVVVDDVASSLTESEIMDMAKSCFNYKLSTTTGFPFTIASPTMNDVSYVVACDLATNATALHRFLFNDSNYTPSATVQNISDNIVNESGYGNQLDLDTFTVEDDVDSIVNTESDDY", "protein production": "failed"}, {"sequence": "MRNTFIVCWQYLRAFALIYLCLLAGNAVSALLPFTIPGSIIGMLVLFTLLASQILPAQWVKPGCYLLIRHMALLFVPIGVGVMNYYDLVNQQFGPIVVSCLISTFIVMLVVGFSTQIMQRERATAGDRTPPKDNE", "protein production": "failed"}, {"sequence": "MRPADRCRSPTGRPATGRHRPDIFTNTVEWDAFEAAPLYGDTTSSFVCQSRMTGEYFPKMGGHAMKNRLACTAVIAAIFCTTSASAQKLPEIWEVTKLVPGSAFHGVHGLGIDKAGHLFAGSVAGAMLYEVDIASGTAKVAIPAPIGMADDIAFAPDGTMAWTGFLAGDLYSRKGDGPIKKLASGLPGINSLAFRKDGRLYATTVFLGDTLYEIDVEGVKPPRQIMEKMGGLNGFEFGPDDKLYGPLWFKGQVAKVDVDKAELTVVADGFKVPAAVNFDSKGNLWVVDTALGQLVRVDPKSGAKTMVAQLKPSLDNLAIDEKDRIYVSNMADNGIQEVDPASGQAKQIIIGKLALPGGIGVTSENGKDTIHVADVFAYRTVDGTTGEVTEKARMHAAGVTLEYPMSATAKGNDVILSSWFTGTVQVIDNKTGATRDMLHDFKAPHDAIVLEDGSILVAELGTKSLVRVSGEHGKDRTTLIGDLEGPVGLVAGSRGEVYVTEAFAGVVSKIEQNGEKTVLVKELKMPEGLARTSDGKLIVAEVGARRLIEITPEDGKITEIAADLPIGLAGAPGGLPTHIPTGVAIGATGVIYFSSDIENAIYKAVKK", "protein production": "failed"}, {"sequence": "MRPALTTVQVFALLAVALSTLVFAASFAVDTTSARPEPVAFDNTVQRGVTAADEQIARNRSISIPRAQVFYSQYRYVVGYVGIGQAVTALTEPGHEQQFGYPLAVYVSDYSDRPVRCGDDGSLRTATPPDWVEANQAHYVVDGSARVPSGPAVVPFADRDDAAAFTETCGGQIIDWETLKTYSFDLKQAAAVREQVGPRRSGADATVQAARQHRNRPVSVEVGTDAPTVQAAVDAAPPNTTVVVPAGTYNEQVMIDKPLSLSGPGATLDGGGNGTVVTVTADRVGVTGFEITGIGNTTVGDPTQSNDSAWDATVTTAYGNSDAAVTGRNASGLYVANITVETPASGVVLRRTPGAVVENVTVNGTADWQDGFMGVIGMHRPIVVQDSVFNGGRDGVYLHRADGTAVRNNAFRDNRFGVHLMYTSRSLVADNVARGQEYAGVVVMTNPVANAIVGNDVRHSGSGIMLAGSRSYIAHNVVVDTTQAMSTNADRSLYEHNVLYGNDIGVRASTVVPSNIVTDNDFIANDRHAISGPGPLRVYTHDGRGNYWSGAYDLTGGTGPVLAQSYSPTDSVDRRLHQTDAAVVLRAAPSVRGLRALRGTTPGFRRGSIVDRAPLADPANPETVRRLRNETSMEGAA", "protein production": "failed"}, {"sequence": "MRPGQELAGPGLRQPRTGVPRRRHRRLPRRHRPAIVSLPPSYGPSMPDAHPPPSPSKDRSFAARVQTGALVIIAFAVVLALLVQAQFILISLAVSVILFSLTSDAIALVARVRFGPVKIPNWLASSLALLLLAIVLLSLAAVIVSQVNTVLLTALSYSEQAPAAVAAIFSWLGKDAEEAVLSSLRAVEISGYLRTLAAQAGTLMQATVLVILFVGFLFAERVWFPVKLLNLFGNPDRARRVEEIVSSIMHRVNRYLLVKTLVSAITGLLVWGVAMAFGLDLAAPLGMLTFILNFIPSLGSIVATLLIVLVTFVQTVDVSTALSVLALVGVIQFICGNILDPMLMGRALQLSSFGIIISLAFWGAIWGIPGMFLSVPIMVGLMIVCAETEALRPIAVLLSREGLAAPMHPERPAAPPRAEPETETVASRRVGL", "protein production": "failed"}, {"sequence": "MRPRRWFAILVCLCCLVTAAWPAEVKGENKKKERLAVVTVDRVNVRQGPGVPYRPLANVHRGETYRLIDIKDGWLKIEWKKNKIGWIAASYAAPVREMEIVQEDRLRLRQEPGLDGRIIGHLAQGDQVIVIKEKGEWKQIVTKKAVGWVAASYLADAESPTGSRQTGVVTADSLNVRVAPSLDAERIGRLLHGERVEIVETKRDWYKIVTRSGLGGWVAAEYIEMKNGQAVGNPEEAVAESASPAAVDLVTIQGNGPRQYVKKWTRTPVQVLAGKTIVLDAGHGGKDGGAESVNGVTEKTLTMETAERLKEKLETYGARVVLTRVNDDYVPLSARVATARLYQADAFISLHYDSAEDEDASGITAYYYDRFADYGLAQSFQGPFSKLSALPFRGLAFGNYYVLRENERPSVLLELGYLSNRSDAEVVATDSYQETVTTAIVNAVRHYFQ", "protein production": "failed"}, {"sequence": "MRPVGSKYLLEEPLGRGATGTVWRARQRETAGAEAAVAGQPGETVAIKVLKEELASDADIVMRFLRERSVLLRLTHPNIVRVRDLVVEGELLALVMDLIDGPDLHRYLRENGPLTPVAAALLTAQIADALAASHADGVVHRDLKPANVLLKQTGGEMHPMLTDFGIARLADSPGLTRTHEFVGTPAYVAPESAEGRPQTSAVDVYGAGILLYELVTGRPPFGGGSALEVLHQHLSAEPRRPSTVPDPLWTVIERCLRKNPDDRPSAENLARGLRVVAEGIGVHANSAQIGAAENVGALLAPDPAPAQVPGAPDAAYDPNGATSVLPHTSGPAGAADPTAVLPSTGAPDPTAVMPPVPPGQPGAPGQGGPEDPHPWQNQLRAARDRNEQTQVQYLDPNQDPLRRRPQRQVSRPPQQPRQAPQGPPPQQPGYGYPQQQQPQRYATPQPQQPQRYAPPPAPEPQQPRREPRPPRQRSANPMRIPGLGCLKGCLVTVVVLFVAGWLVWELSPLQEWIGTGKGYWDQLTDWFTTVTDWIGDLGGSGGG", "protein production": "failed"}, {"sequence": "MRQFPPASSTVISVNFEELQAFVGRNPMLSLALVGLTIAIIVTEIARLFRGYRALKPAELTRLINSENALVIDLSPTADFEKGHIAGSRNVALAKFDPAGKLLANAKSSPVVVVCRSGNASAGAAKTLKKAGFEQVYWLEGGIAAWQMAELPLVKGRA", "protein production": "failed"}, {"sequence": "MRQHGKVSEVTEKKTAVYVDDQQRILIRQLARSWLWRSELPTWLLIVTVYGGWFACVAGWRTLGLFPATLLLIWFTAWYMSLQHELIHGHPTRLAWFNQLLGTLPLAVWYPYGVYRDSHLAHHRNHLLTHPEDDPESYYVTAESWQRFSAWQRRLIHLRNTFWGRLLLAPMMDIIHTLNSALRAFREGDRRAIAMWSLHLLLLTGLLTWMAAQGFSPLWFVLAVSYPALALTKVRSFLEHRAADDPLARSVINEAGLPWRVLFLNLNYHAVHHDLPGVPWYALRQLYLHRQAAYLQRNQGFLVRGYGEWRRHFSRRAVAVNAHPGFGEQAQAGGEHG", "protein production": "failed"}, {"sequence": "MRQKELETADWQRNLKIAWIGTFFTGASFSIVMPFMALYVEELGVKGAMVEWYAGLSVALSALASALVSPVWGHLADRYGRKPMMIRASMVMTFTMGGLAFVPNVFWMLFLRILNGLFAGYVPNATALIASQAPQQRSGYALGTLSTGLTAGVLIGPLLGGAISEAFGMRGTFLLVGLILFICCLLTIFGLREDFQLIEKVEIMSFSQVFAKIPSKSLLIGLFVTSMIIQISAQSIAPILALYIRYLGQSDNILFYSGLIVSAMGFSSLLSTPYLGRLGDRIGNHRLLLMGLFYSFLLYFLCGFAGSALQLGLLRFAYGFGVGALTPSVNSLLTKMTPKEGISRIFSLNQSFSYIGQVLGPFVGSAVATGLGYRWVFFVTAAIVFGNFVCSLIIFRKSLGVKNIGES", "protein production": "failed"}, {"sequence": "MRQPPILSEALRLFFPLAALHGAVWPFLWIVIGGYALPFANAVPPSQWHAHEMIFGTYGMALAGFLGSAVPEWTDTKAAAGRTLLCLAGLWLPGRLIGFVGADTWSLLAGFFDLAFLLALSVLIGKAMLVRRTTKHLAFLVWLILFAAAETGVRYAWWMGDLEFAVRCLEAALCIFIVLFSLSAARINVVVINLALDPSGETTPYRPHPGRQHMAGAMVTLYMAAKLLFPESDVCAWLALAAGAAFFDRLAEWFIGRAVFRTEVLLLALGNAFAGAGFLALGATRLGFSVTSAAGLHLLSVGALGCAIMAVFIIAGLRHTGRDLKHLPWQAHAAAALMVMAGLTRILPEFDVAAVLSPYHHGLSAILWAASFGIWLQGFLPFMRAPGTDEAGACG", "protein production": "failed"}, {"sequence": "MRQRKDMPHNRLQTGGMTDEPTDIKAEAKPARTSDLRGFIRLLEERGQLRRIRQPVSLVHEITEIHRRVLADGGPALLFEQPVDHEGKVRKMPLLANLFGTRQRIEWGLGLETGGLPALGQKLTELREPRPPKSMAEAWSKLPLLRAALSMRQRNVSRAPVQEKVLTRDAVDLARLPVQWCWPGEPAPLITWPLVITRSPDDPDDINVGIYRMQVLGPDRVIMRWLAHRGGAHHHRLWQARGLDMPVTVAIGADPATILAAVMPLPDHISELGFSGLLRGAKSRIAKALTVPMPVPANAEIVLEGTVSATETAMEGPYGDHTGYYNSVEAFPVMTLSAITMRRDPIYLSTYTGRPPDEPSVLGEAMLEIFLPLVKRQFAEIVDLWMPPEACSYRVMVASIDKRYPGQAKRVMMGLWSMLPQFSYVKLIILVDPDIDVRSWTDVVWALSTRFDASRDTTIINDTPIDYLDFASPKAGLGGKMGLDATRKLPPETEREWGRVLSMTPDVVAKVDLVWRDLGLGERPLEHHHHHH", "protein production": "failed"}, {"sequence": "MRRCCGDLAASRGGCEPASRNLTRTRLTFAALGRINRPAEHDREDAMTRQEARDHEPRDQDAALSRRTLVRGLALGAAATMAGPALAQTGPAAPPTTITTPPRDFGPNGAPTTYFWDPDIIAVDPSFDDLAQPNTAIKRLYTGVLWAEGPAWSAQGRYLLWSDIPNNRQMRWSEDDGRISVFRSPSNNSNGNSFDFQGRQLSCEHLTRRVTRYEHDGTATVLCDNYNGKKLNSPNDVVAHPDGSYWFTDPPYGGQLYEGEPDAAGGPSNSGGKLNPRIGQPAGFTPGKRELPTNCYRIDPSGRVDLVVTEEQVPDPNGLCFSPDFKKLYVVSTGKGPGDSGPGGKGEIFVFDVGADNKLSNQKRFSDCTIDGVKCGPDGVRCDVNGNVWASSNAGRAVGYSGVTVWSPEGKLLGRIRLPEVCGNICFGGPKRNRLFMAASQSLYAVFTATQGAGPG", "protein production": "failed"}, {"sequence": "MRRGSGNPERPSLSRDGLRVPPPCPGKRGPGHFSGYHGGMEGIRRAAQRAAEEFLQAFPMAPGSLFVLGGSTSEVLGERVGTRPSLEAAHAVLEGLLPPLLERGVHVAVQACEHLNRALVVERETARAFGLEEVAVFPHPKAGGALATAAFLRFRDPVMVESLKAQAHGGMDIGGVLIGMHLRPVAVPLRLSVRKIGEAVLLAAKTRPKLVGGARAVYTREEMLKKLEEFLPKPP", "protein production": "not failed"}, {"sequence": "MRRLNRKNNEALKKLNDRQRKVLYCIVREYIENKKPVSSQRVLEVSNIEFSSATIRNDMKKLEYLGYIYQPHTSAGRIPTDKGLRFYYEEMLKISKETSEADLAVETFKSMPLADPEKVLFLAGNLLARLTEGYVLIERPNTRDLKILRVMLIPVSEDYLIFSILTEFGVSKVTPIKTQERLNWEEIERQLNFLLRGRTVGEVLMGKIESLKGSGFLRLIESLIGETVERYLDAGLENLLKDETLTLEDIRNLLEEVKDQKFLESLVGEGITVRIGREIGRKKLEKFAVFSGKYFKGESPIGSVYLFTSKVTKYDRNHRVFEYILNRLSEYFTSTSRR", "protein production": "not failed"}, {"sequence": "MRRSAYMTDTKICKKGCDHDTSHRENEQRCGRGSFWMHDPDLIFSELKLKAGEFFLDMGCGPGDYSIWASKIVGNSGMVYALDKWQELIDNLTEKADLEGIKNIKGMVSDIARPLPIEESCIDVYFISTVLHSLDLAKDSDVIFSEIHRVLKPDGRLAIVECKKEEMSFGPPLHMRLSPEELENLIAKYGFEKINLVDLGYNYMIQFRKSYQK", "protein production": "failed"}]}]}
